Experiments:
[1] = biological target: T1, EBV gp350, truncated construct comprising residues 1-470 of the wild-type protein, C-terminal polyhistidine … (Epstein-Barr virus, UniProt P03200 1-470); experiment: ITC, 20 °C, 1/3x PBS, single site binding model
T1 construct: range 1-470; Produced in Sf9 insect cells by baculovirus; The methods say truncated 1-470, yet the results and discussion call the titrated ligand 'full-length'; also called Epstein-Barr virus glycoprotein gp350/220; not shown: C-terminal polyhistidine tag
T1 sequence: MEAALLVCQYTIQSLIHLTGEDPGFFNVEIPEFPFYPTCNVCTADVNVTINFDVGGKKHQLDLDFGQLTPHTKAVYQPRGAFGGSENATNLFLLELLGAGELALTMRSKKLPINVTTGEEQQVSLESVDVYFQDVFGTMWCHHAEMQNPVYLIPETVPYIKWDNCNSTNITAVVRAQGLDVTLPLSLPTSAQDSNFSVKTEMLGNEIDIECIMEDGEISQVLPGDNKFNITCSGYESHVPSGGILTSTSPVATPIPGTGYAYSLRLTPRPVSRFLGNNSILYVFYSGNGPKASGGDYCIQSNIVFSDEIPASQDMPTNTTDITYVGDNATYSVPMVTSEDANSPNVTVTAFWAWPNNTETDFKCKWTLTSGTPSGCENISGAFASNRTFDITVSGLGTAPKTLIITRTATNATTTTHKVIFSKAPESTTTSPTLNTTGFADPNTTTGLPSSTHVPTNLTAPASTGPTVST

[2] = biological target: T2, Human C3d (human, UniProt P01024 996-1303, limits assumed); experiment: ITC, 20 °C, 1/3x PBS, two site binding model (weak site)
T2 construct: domain: C3d; also called complement component 3 proteolytic fragment C3d
Description: (§1) ITC experiments were carried out on a Microcal VP-ITC (GE Healthcare, Piscataway, N.J.) housed in the Biophysics Core facility on the UCDSOM campus. […] Data was analyzed using the software provided by the manufacturer (Origin, version 7.0 MicroCal) using either single site or two site binding models (55).

[3] = biological target: T2, Human C3d; experiment: ITC, 20 °C, 1/3x PBS, two site binding model (tight site)
Description: as §1

[4] = biological target: T1, EBV gp350, truncated construct …; experiment: NMR titration, upper limit from slow exchange (min. shift difference about 60 Hz, diffusion-limited on rate assumed)

T2 sequence (P01024 996-1303 limits assumed): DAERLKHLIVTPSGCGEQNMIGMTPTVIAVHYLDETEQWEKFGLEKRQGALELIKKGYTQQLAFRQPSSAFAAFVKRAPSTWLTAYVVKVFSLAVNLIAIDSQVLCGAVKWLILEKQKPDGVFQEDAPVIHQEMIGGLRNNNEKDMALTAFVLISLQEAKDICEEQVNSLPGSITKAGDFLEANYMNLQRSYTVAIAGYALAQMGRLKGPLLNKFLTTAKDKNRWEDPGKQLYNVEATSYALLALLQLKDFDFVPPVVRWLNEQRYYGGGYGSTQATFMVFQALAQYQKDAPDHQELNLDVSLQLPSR

B1: Human CR2 SCR1-2 (short consensus repeat domains 1 and 2 of human complement receptor 2) (receptor)
chain: ISCGSPPPILNGRISYYSTPIAVGTVIRYSCSGTFRLIGEKSLLCITKDKVDGTWDKPAPKCEYFNKYSSCPEPIVPGGYKIRGSTPYRHGDSVTFACKTNFSMNGNKSVWCQANNMWGPTRLPTCVS
notes: The ITC paragraph says only 'CR2 SCR1-2', so it is not clear which preparation gave the ITC values; also called CR2/CD21 SCR1-2; SCR1-2 domains of CR2
Kd [1]: 14 nM | Kd [2]: 160000 nM | Kd [3]: 130 nM | Kd [4]: ≤ 60000 nM
